The data set is described as follows: soluble on expression in E. coli; label from the status in PepcDB or PDB records.
For the sequence “MATQINQKFGSKYKSNRKDETPMFEVRNGKSVIKNSGNHEATVNRTLDFHMTKLFQWEEQSDAIESSYVCALCHENGEKRELFGPYYATHNPIKYWPSFLAKKPTAKKPTKIELWFHGSCVLWAPNVHLHGNQLTNLDNQIDIFWSQTCIVCRKTGAAISVQNKKNTFIHYPCAKNKGYKLDEHALLCNS”, the “soluble on expression in E. coli” value was “soluble”.
With “SASERIIEKTPENSKFHKHQQKNYPLMSILKFHCRLLRCVSRCFTGITISYPATKHGYTKFEKLEDPLTGYTNMKRTIILDLDETLVHATTHLPGVKHDFMVMVKMEREIMPIFVVKRPGVTEFLERLGENYKVVVFTAGLEEYASQVLDKLDKNGVISQRLYRDSCTEVNGKYVKDLSLVVGKDLRSALIVDDNPSSYSLQPENGVPIKAFVDDLKDQELLNLVEFLESCYAYEDMRDAVTDLLAN”, the “soluble on expression in E. coli” value was “soluble”.
As for “MGSSHHHHHHSSGLVPRGSHMLEDPMEQPINVLNDFHPLNEAGKILIKHPSLAERKDEDGIHWIKSQWDGKWYPEKFSDYLRLHKIVKIPNNSDKPELFQTYKDKNNKRSRYMGLPNLKRANIKTQWTREMVEEWKKCRDDIVYFAETYCAITHIDYGVIKVQLRDYQRDMLKIMSSKRMTVCNLSRQLGKTTVVAIFLAHFVCFNKDKAVGILAHKGSMSAEVLDRTKQAIELLPDFLQPGIVEWNKGSIELDNGSSIGAYASSPDAVRGNSFAMIYIEDCAFIPNFHDSWLAIQPVISSGRRSKIIITTTPNGLNHFYDIWTAAVEGKSGFEPYTAIWNSVKERLYNDEDIFDDGWQWSIQTINGSSLAQFRQEHTAAFEGTSGTLISGMKLAVMDFIEVTPDDHGFHQFKKPEPDRKYIATLDCSEGRGQDYHALHIIDVTDDVWEQVGVLHSNTISHLILPDIVMRYLVEYNECPVYIELNSTGVSVAKSLYMDLEYEGVICDSYTDLGMKQTKRTKAVGCSTLKDLIEKDKLIIHHRATIQEFRTFSEKGVSWAAEEGYHDDLVMSLVIFGWLSTQSKFIDYADKDD”, the “soluble on expression in E. coli” value is “soluble”.
In the case of “MGSDKIHHHHHHMLLSSDASAFLSPRTVQASRMKPLRIGLFTDTFLPDQNGIVTSVGLLSDELRARGHHVDVVAPFFPEQQDTRPDVRRAPSVRYIFLPTYRLAWPTRKDFEQKYDLIHTHTPLTLGLAGARLARKWDVPHVATYHTHIEAYTHYVPGLTLLQKHTRVVTRLMGLYYRRADAVITPTAAMLDVTREMGVRNPVVIPTSVKPEVLQAAPPVENPWPAGTRRLLTVGRLAREKRFDLVLDTLANLPDAHLVVLGEGPEREHLIRHAERLGVAARVSFLGVKPWTEIGAYYRLAELFLFASDTETQGLVLQEAQLMGVPVIAVGARGTLSGVAQGRSGYLVAPGDVAALTRHAQAILADGQLWRRLSEGARAFGAAWTPGGVAERVLDVYASVLGVPREIPFPEAASPRNTLAYDR”, the “soluble on expression in E. coli” value is recorded as “not soluble”.
With “MSLNPNYLDFEQPIADLEAKIQELHTASMGPSINVDTEVRALENKLRLRTAQIFRNLSAWQISQLARHPRRPYTLDYISVVCDEFQELAGDRALADDKAIVGGLARIGHRPVMLIGHQKGRDNKERLMRNFGMPKPEGYRKALRLMKLAERFGLPLLTFIDTMGAWPGIDAEERNQSEAIATNLIEMAELKIPVICTVIGEGGSGGALAIGIGDRTLMLEYSTYSVITPEGCASILWKDAAKASDAAEQLNLTARRLKEFGLIDKVIREPIGGAHRNPQQMANRLKAVLLNELEALDKVPLVTLLNQRHKRLRTYGAYENHEGHHHHHH” the entry was “not soluble”; with “MGSDKIHHHHHHMHPALWISKTGLDAQQTDISVISNNVANASTIGYKKSRAVFEDLLYQTVNQAGGISADNTKLPNGLNIGAGTKVVATQKMFSQGNMLTTDNSLDLMIEGPGFFEVQLPDGTPAYTRNGQFSLDDTGQIVTPGSGYVLQPAITIPENATGITVSAGGEVSVKIPGTAESQVIGQITMTDFINPSGLDPLGQNLYTETGASGTPIQGTASLDGLGAIRQGALETSNVNVTEELVNLIQSQRIYEMNSKVISAVDQMLAYINQNL”, “not soluble”.
For “MAHHHHHHMTQQWFPLMAVTPDYLHCITEERFRTNVYEPEADTFLLLEALDKDAHLLRALQPRRCVEIGCGSGTVISHLMLLLLGATEGGNLGSGSAEKSTAEFHAVDVNPVALEATSITWHNTQKRIIGGDTILPLHLHRGDLFSPFEHEASDITEYTKEEKEEFTFDVILFNPPYVPTTMEELQSAEAGKDLITAAWCGGPRGRVVVDRFISKLPSFLSSRGVCYIVAIRENDVEELMEVIRGTFPNDRCYPVNVTVTAERYTGEHLRVIRVS”, the “soluble on expression in E. coli” value is given as “not soluble”.

Values taken from the DeepSol protein solubility set.
